Source: the supplement of paper PMC10266784

B1: library; numbered along this chain (parent)
chain: MAAAAAAAAEQQSSNGPVKKSMREKAVERRSVNKEHNSNFKAGYIPIDEDRLHKTGLRGRKGNLAICVIILLFILAVINLIITLVIWAVIRIGPNGCDSMEFHESGLLRFKQVSDMGVIHPLYKSTVGGRRNENLVITGNNQPIVFQQGTTKLSVENNKTSITSDIGMQFFDPRTQNILFSTDYETHEFHLPSGVKSLNVQKASTERITSNATSDLNIKVDGRAIVRGNEGVFIMGKTIEFHMGGNMELKAENSIILNGSVMVSTTRLPSSSSGDQLGSGDWVRYKLCMCADGTLFKVQVTSQNMGCQISDNPCGNTH

Variants of: B1
Assay: SGCB cell-surface expression functional score (HA stain, bin4 vs bin1, normalised to synonymous) (log10 ratio); higher = more cell-surface SGCB (functional)
Summary of the method: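 The functional score is a log ratio of variant frequency in the highest versus the lowest intensity bin, expressed as a median over codons and duplicate transductions. Codon-saturation libraries of HA-tagged, YFP-fused human beta-sarcoglycan were transduced by lentivirus at MOI <0.1 into HEK293 cells stably expressing alpha-, gamma- and delta-sarcoglycan, and the cells were stained on ice with Alexa Fluor 647 anti-HA, fixed and sorted into four 5% intensity bins before amplicon sequencing. Synonymous variants were scaled to mean 0, SD 0.5 within each section.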

SGCB cell-surface expression functional score (log10): each site, then its substitutions
N141: C 0.03 | M 0.71 | V -0.25 | F -0.33 | E -0.4 | R 0.07 | K -0.5 | A -0.39 | T -0.25 | P -0.87 | D -0.21 | Y -0.56 | I -0.7 | L -0.45 | W -0.63 | H -0.24 | S 0.17 | Q -0.08 | G -0.3
N140: V 0.16 | K -0.48 | G 0.06 | A -0.08 | R 0.05 | W -0.93 | M -0.05 | P -0.49 | Q -0.33 | E 0.35 | S -0.38 | Y -0.05 | F -0.56 | H -0.65 | L -0.39 | D -0.24 | C -0.04 | T -0.19 | I -0.12
Q147: N 0.29 | R -0.06 | H -0.39 | L -0.21 | S 0.16 | T -0.47 | E 0.33 | M -0.04 | Y -0.42 | D -0.27 | K 0.26 | F -0.65 | W 0.33 | V 0.26 | A 0.19 | P -0.68 | C 0.5 | G -0.41 | I -0.06
Q148: E -0.58 | G 0.33 | I -0.28 | A 0.12 | F -0.38 | D -0.54 | C 0.39 | H -0.24
V145: Y -0.43 | P -1.15 | R -0.43 | E -0.03 | C -0.73 | I 0.52 | H -0.24 | D -0.79 | Q -0.39 | W -0.57 | G -0.81 | A -0.01 | F -0.11 | S -0.31 | N -0.26 | L -0.09 | M -0.9 | K -0.12 | T 0.04
G139: Y -1.89 | W -0.74 | T -0.23 | P -1.13 | V -1.28 | S 0.06 | Q -1.77 | R -0.98
P143: K -0.28 | V 0.07 | Q -0.7 | Y -0.63 | H -0.41 | T -0.41 | D -0.9 | M 0.69 | L -0.54 | N -0.09 | R -0.34 | G -0.72 | E -0.73 | F -0.1 | C 0.07 | I -0.11 | S -0.44 | A -0.21
Q142: L -0.54 | G -0.22 | M 0.97 | E -0.04 | R -0.5 | C -0.01 | T -0.17 | Y -0.3 | S 0.05 | P -1.08 | H -0.52 | I -0.41 | F 0.14 | V -0.05 | N -0.43 | D -0.54 | A -0.06 | K -0.31 | W 0.21
F146: V -0.32 | R -1.45 | P -1.14 | M -0.56 | H -0.89 | N -1.08 | G -0.94 | L 0.18 | Q -1.34 | K -0.93 | W -1.15 | T -1.45 | Y -0.75 | I 0.28 | A -1.22 | C -0.47 | E -0.7 | S -0.84 | D -1.36
I144: E -1.11 | Q -0.96 | N -0.97 | Y -1.1 | M -0.89 | C -0.33 | K -1.07 | H -0.73 | D -0.57 | P -1.22 | L -0.46 | R -1.06 | S -0.8 | A -0.98 | T -0.64 | V 0.47 | F -0.77 | W -1.4 | G -0.85
